Experiments:
MS2 coat protein [1] = assay: apparent KD of MS2 coat protein, switch ON state; designed switch direction (-1 OFF switch, 1 ON switch): -1; higher = weaker reporter binding; details: FMN input: 0 or 200 uM; Eterna round: R93 (includes R88 designs)
Method in brief: (§1)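 Designed RNA switches were made by on-chip transcription from Illumina sequencing clusters and then titrated with SNAP-549-labelled MS2 coat protein. Twofold steps ran from 0.7 or 1.5 nM to 3 µM, each lasting 0.8–1.5 h early and 10–20 min late, in 100 mM Tris-HCl pH 7.5, 80 mM KCl, 4 mM MgCl2, without or with constant ligand. Apparent KD is the per-design median of normalised cluster binding-curve fits.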

MS2 coat protein [2] = assay: apparent KD of MS2 coat protein, switch OFF state (with FMN for OFF switches, without FMN for ON switches); designed switch direction (-1 OFF switch, 1 ON switch): -1; higher = weaker reporter binding; details: FMN input: 0 or 200 uM; Eterna round: R93 (includes R88 designs)
Method in brief: as §1

MS2 coat protein [3] = assay: apparent KD of MS2 coat protein; designed switch direction (-1 OFF switch, 1 ON switch): 1; higher = weaker reporter binding
Method in brief: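 SNAP-549-labelled MS2 coat protein was titrated, doubling from 0.7 or 1.5 nM to 3 µM, over designed RNA switches transcribed on Illumina chips by stalled E. coli RNA polymerase. Runs were done without input, with 200 uM small-molecule ligand, or with an oligonucleotide input. Apparent KD is the per-design median over clusters of curve-fitted normalised fluorescence.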

[4] = input ligand: microRNA oligo, concentration not stated
[5] = Eterna round: R95, input ligand: FMN 200 uM
[6] = Eterna round: R95, input ligand: microRNA oligo, concentration not stated
[7] = Eterna round: R95, input ligand: none

Row | Sequence | apparent KD of MS2 coat protein (MS2 coat protein [1]) [µM] | apparent KD of MS2 coat protein (MS2 coat protein [2]) [µM] | apparent KD of MS2 coat protein (MS2 coat protein [3]; input ligand: FMN 200 uM) [µM] | apparent KD of MS2 coat protein (MS2 coat protein [3]; [4]) [µM] | apparent KD of MS2 coat protein (MS2 coat protein [3]; input ligand: none) [µM] | also measured
1 | AAAAAAAGAGGAUAUACGUACAUGUCAAAAGACGUGAAGGGACAUGAGGAUCACCCAUGUAGAAGGUUUAAAAA [JL Wide Open 30] | 0.0355 | 0.0163 | – | – | – | –
2 | AAAAAACAUGAGGAUCACCCAUGUAAGGAUAUCCAAAAGAAAAGAAAAGAAAGAAGAAGGAGAAGGUACAAGAA [Sahure] | 0.0411 | 0.0324 | – | – | – | –
3 | AAAAAACAUGAGGAUCACCCAUGUAAGGAUAUCUAAAAUAAAAGAAAAAUAAAGAAAAGGAGAAGGUAUAUGAA [JL wbt mod 20] | 0.0198 | 0.0257 | – | – | – | –
4 | AAAAAACAUGAGGAUCACCCAUGUAAGGAUAUGCUCGAAAGUGCGAAAGCACAAACGAGCAGAAGGUACAAAAA [66%, Wbt, 45] | 0.0347 | 0.0519 | – | – | – | –
5 | AAAAAACAUGAGGAUCACCCAUGUAAGGAUAUGCUGAAAAACACUGGAAAACAGUGCAGCAGAAGGUACAAAAA [66%, Wbt, 34] | 0.0211 | 0.0361 | – | – | – | –
6 | AAAAAACAUGAGGAUCACCCAUGUAAGGAUAUGUAAAAUAAAAGAAAAAUAAAGAAAAGCAGAAGGUACAUGGA [JL wbt mod 15] | 0.0549 | 0.0911 | – | – | – | –
7 | AAAAAACAUGAGGAUCACCCAUGUCAGGAUAUCGAAAAAUAAAUAAAAAUAAAAUAAACGAGAAGGGACAAAAA [May 11] | 0.0398 | 0.0447 | – | – | – | –
8 | UUGAUGUACUGAGGAUAUCGUGUCGUCUGAUUUUACAUGAGGAUCACCCAUGUGGGUUGUGGUAUCGAGAAGGCAGUUUUCUUA [JR_SSNG2_Sub029] (Eterna round: R96, puzzle: Same State NG 2) | – | – | 0.0504 | 0.0843 | 0.158 | –
9 | UUGAUUAGAAAUUAACAUGAGGAUCACCCAUGUAUUGGAUCAGAGGAUAUGCAUGUUUGAUUGUAGCAGAAGGCUGAUUGUGGA [JR_SSNG3_Sub028] (Eterna round: R96, puzzle: Same State NG 3) | – | – | 0.0432 | 0.0295 | 0.0465 | –
10 | UUGCUCGUGUGAGGAUAUGCCGCCGUUUCGGCUGCAGAAGGUACUACGUUACAUGAGGAUCACCCAUGUCUCUGUUGUUUCGUG [salish99_SSNG1_r04_940] (Eterna round: R96, puzzle: Same State NG 1) | – | – | 0.0181 | 0.0139 | 0.0165 | –
11 | UUUAGCGUUACAGGAUAUGGUGAGGAUCACCCACUAGAAGGGUAAACAUGUGCGUCGUACAUGAGGAUCACCCAUGUAGGGCGU (Eterna round: R96, puzzle: Same State NG 1) | – | – | 0.0144 | 0.0137 | 0.0226 | –
12 | UUUAGUUGCGGGCAGGAUAUGUAUUAAAAUACAUGAGGAUCACCCAUGUGAGACCGAAAAGGUCUACAGAAGGGCCAAUCGCGAC [Laonerce - 20] (puzzle: Same State 2) | – | – | – | – | – | apparent KD of MS2 coat protein (MS2 coat protein [3]; [5]): 0.0161 µM; apparent KD of MS2 coat protein (MS2 coat protein [3]; [6]): 0.066 µM; apparent KD of MS2 coat protein (MS2 coat protein [3]; [7]): 0.0795 µM
13 | UUUAGUUGCGGGCAGGAUAUGUAUUAAAAUACAUGAGGAUCACCCAUGUGCGGGUAUAACACCCGACAGAAGGGCCAAUCGCAAC [Laonerce - 6] (puzzle: Same State 2) | – | – | – | – | – | apparent KD of MS2 coat protein (MS2 coat protein [3]; [5]): 0.0222 µM; apparent KD of MS2 coat protein (MS2 coat protein [3]; [6]): 0.142 µM; apparent KD of MS2 coat protein (MS2 coat protein [3]; [7]): 0.24 µM
14 | UUUAUACAUGAGGAUCACCCAUGUCAACGUAGUCGAGGAUAUGGGCAGCCGUGAGGCGUACUAGAAGGCGAAGAGG [JL-ss1-3.08 ViennaUCT mod] (puzzle: Same State 1) | – | – | – | – | – | apparent KD of MS2 coat protein (MS2 coat protein [3]; [5]): 0.0497 µM; apparent KD of MS2 coat protein (MS2 coat protein [3]; [6]): 0.0388 µM; apparent KD of MS2 coat protein (MS2 coat protein [3]; [7]): 0.118 µM
15 | UUUGCAUGACGAGGAUAUCAUUUAUUUCUUGAUUGAGAAGGCGUUUUUUUUAUUACCUAACAUGAGGAUCACCCAUGUGACAGU [JR_SSNG1_Sub045] (Eterna round: R96, puzzle: Same State NG 1) | – | – | 0.0148 | 0.0196 | 0.0184 | –

From the supplement of paper PMC9170038
